According to PMC8674365, “PP2A phosphatase inhibition is anti-fibrotic through Ser77 phosphorylation-mediated ARNT/ARNT homodimer formation” (Scientific Reports, 2021):

B1: Endogenous ARNT of mouse tubular epithelial cells (MCT) (natural protein)
chain: not shown
notes: Aryl hydrocarbon receptor nuclear translocator (ARNT), endogenous in the murine proximal tubular epithelial cell line MCT; source: endogenous, MCT cell extract, immunoprecipitated with ARNT antibody
B2: Endogenous ARNT of mouse kidney (UUO-challenged C57BL/6 mice) (natural protein)
chain: not shown
notes: Aryl hydrocarbon receptor nuclear translocator (ARNT), endogenous in kidney tissue of C57BL/6 mice; source: endogenous, total kidney lysate of mice, immunoprecipitated with ARNT antibody

Tests used:
[1] = biological target: the molecule itself; test: immunoprecipitation and MALDI-TOF mass spectrometry; endogenous ARNT pulled down from extracts of LB100-treated MCT cells with ARNT antibody, eluted with 0.3% TFA, sinapinic acid matrix, linear positive mode
[2] = biological target: the molecule itself; test: native MS; liquid native MALDI mass spectrometry of endogenous ARNT pulled down from total kidney lysates of LB100-treated UUO mice; eluted in 0.3% TFA, mixed with ammonium acetate buffer (100 mM, pH 9), glycerol

Protein	stoichiometry N [1]	stoichiometry N [2]
B1	2	–
B2	–	2
